Results reported in patent publication US20200024322A1 (Eli Lilly, published 2020).
Residue numbers refer to the chain shown, from its start.

B1: Example 147 (peptide)
peptide: YXEGTXTSDYSIXLDEKAQXEFIXYLIEGGPSSGAPPPS
modifications: Aib2; αMeF(2F)6; αMeL13; K17((2-[2-(2-Amino-ethoxy)-ethoxy]-acetyl)2-(γ-Glu)-CO-(CH2)18-CO2H); Aib20; Aad24; C-terminal NH2
B2: Example 181 (peptide)
peptide: B1 peptide with Y10X
modifications: not printed (the compound name of this Example is missing from the table of Examples 6-287)
B3: Example 157 (peptide)
peptide: B1 peptide with Y10X, X24E
modifications: Aib2; αMeF(2F)6; 3Pal10; αMeL13; K17((2-[2-(2-Amino-ethoxy)-ethoxy]-acetyl)2-(γ-Glu)-CO-(CH2)18-CO2H); Aib20; C-terminal NH2
B4: Example 152 (peptide)
peptide: B1 peptide
modifications: Aib2; αMeF(2F)6; αMeL13; K17((2-[2-(2-Amino-ethoxy)-ethoxy]-acetyl)2-(γ-Glu)-CO-(CH2)18-CO2H); Aib20; Aib24; C-terminal NH2
B5: Example 189 (peptide)
peptide: B1 peptide with Y10X
modifications: Aib2; αMeF(2F)6; 4Pal10; αMeL13; K17((2-[2-(2-Amino-ethoxy)-ethoxy]-acetyl)2-(γ-Glu)-CO-(CH2)18-CO2H); Aib20; Aib24; C-terminal NH2
B6: Example 143 (peptide)
peptide: B1 peptide with E16K, E21X, X24E
modifications: Aib2; αMeF6; αMeL13; K17((2-[2-(2-Amino-ethoxy)-ethoxy]-acetyl)2-(γ-Glu)-CO-(CH2)18-CO2H); Aib20; Aib21; C-terminal NH2
B7: Example 144 (peptide)
peptide: B1 peptide with E16K, X20H, E21X, X24E
modifications: Aib2; αMeF6; αMeL13; K17((2-[2-(2-Amino-ethoxy)-ethoxy]-acetyl)2-(γ-Glu)-CO-(CH2)18-CO2H); Aib21; C-terminal NH2
B8: Example 203 (peptide)
peptide: B1 peptide with Y10X, E16K
modifications: Aib2; αMeF(2F)6; 4Pal10; αMeL13; K17((2-[2-(2-Amino-ethoxy)-ethoxy]-acetyl)2-(γ-Glu)-CO-(CH2)18-CO2H); Aib20; D-Glu24; C-terminal NH2
B9: Example 202 (peptide)
peptide: B1 peptide with Y10X, E16K
modifications: Aib2; αMeF(2F)6; 4Pal10; αMeL13; K17((2-[2-(2-Amino-ethoxy)-ethoxy]-acetyl)-(γ-Glu)-(2-[2-(2-Amino-ethoxy)-ethoxy]-acetyl)-CO-(CH2)18-CO2H); Aib20; D-Glu24; C-terminal NH2

Each binder was assayed against T1, human GLP-1 receptor (human, UniProt P43220 24-463) (assay: SPA, [125I]-GLP-1 displacement, hGLP-1R membranes).
T1 construct: whole, on cells; Used as crude membranes of stably transfected HEK293 cells; also called hGLP1R; hGLP-1R

Row | Binder | Ki [nM]
1 | B1 | 4.47
2 | B2 | 7.28
3 | B3 | 8.97
4 | B4 | 48
5 | B5 | 8.81
6 | B6 | 1.15
7 | B7 | 1.78
8 | B8 | 3.9
9 | B9 | 5.38

These binders were tested against T2, human GIP receptor (human, UniProt P48546 22-466) (assay: SPA, [125I]-GIP displacement, hGIPR membranes).
T2 construct: whole, on cells; Used as crude membranes of stably transfected CHO cells; also called hGIPR
T2 sequence (looked up): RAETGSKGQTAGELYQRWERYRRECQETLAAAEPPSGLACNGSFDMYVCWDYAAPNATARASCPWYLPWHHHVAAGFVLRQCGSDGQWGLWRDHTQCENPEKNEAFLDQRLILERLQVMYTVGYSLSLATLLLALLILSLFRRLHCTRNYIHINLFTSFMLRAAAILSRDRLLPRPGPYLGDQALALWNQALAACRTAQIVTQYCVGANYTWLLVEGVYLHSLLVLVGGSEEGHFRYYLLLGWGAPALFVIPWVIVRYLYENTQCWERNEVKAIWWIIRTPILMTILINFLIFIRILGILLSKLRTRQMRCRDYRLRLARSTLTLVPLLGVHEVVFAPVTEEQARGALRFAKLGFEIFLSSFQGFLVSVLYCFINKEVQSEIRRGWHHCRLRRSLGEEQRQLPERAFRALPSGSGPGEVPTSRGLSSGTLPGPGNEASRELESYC

Row | Binder | Ki [nM]
10 | B1 | 0.0981
11 | B2 | 0.145
12 | B3 | 0.0937
13 | B4 | 0.117
14 | B5 | 0.128
15 | B6 | 0.0304
16 | B7 | 0.0341
17 | B8 | 0.0337
18 | B9 | 0.0579

The binders below were run against T3, human glucagon receptor (human, UniProt P47871 26-477) (assay: SPA, [125I]-Gcg displacement, hGcgR membranes).
T3 construct: whole, on cells; Used as crude membranes of stably transfected HEK293 cells; also called hGcgR; hGLcgR
T3 sequence (P47871 26-477): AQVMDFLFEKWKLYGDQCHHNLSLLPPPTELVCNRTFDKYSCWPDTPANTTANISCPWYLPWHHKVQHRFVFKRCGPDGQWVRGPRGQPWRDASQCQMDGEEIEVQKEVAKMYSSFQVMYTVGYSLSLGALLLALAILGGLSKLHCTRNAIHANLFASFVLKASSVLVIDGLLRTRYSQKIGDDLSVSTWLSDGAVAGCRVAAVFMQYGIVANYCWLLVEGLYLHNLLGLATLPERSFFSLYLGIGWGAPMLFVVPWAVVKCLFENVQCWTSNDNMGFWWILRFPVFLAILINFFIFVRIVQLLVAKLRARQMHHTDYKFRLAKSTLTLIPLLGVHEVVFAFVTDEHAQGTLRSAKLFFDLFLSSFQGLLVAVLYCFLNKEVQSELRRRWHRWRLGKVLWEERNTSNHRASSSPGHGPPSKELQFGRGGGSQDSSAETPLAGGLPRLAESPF

Row | Binder | Ki [nM]
19 | B1 | 64.9
20 | B2 | 413
21 | B3 | 179
22 | B4 | 93.4
23 | B5 | 146
24 | B6 | 65.5
25 | B7 | 77
26 | B8 | 845
27 | B9 | 394
